Measurements published in US6544753 (MERCK, dated 2003).

T1: human GALR2 (human, UniProt O43603 1-387)
T1 sequence: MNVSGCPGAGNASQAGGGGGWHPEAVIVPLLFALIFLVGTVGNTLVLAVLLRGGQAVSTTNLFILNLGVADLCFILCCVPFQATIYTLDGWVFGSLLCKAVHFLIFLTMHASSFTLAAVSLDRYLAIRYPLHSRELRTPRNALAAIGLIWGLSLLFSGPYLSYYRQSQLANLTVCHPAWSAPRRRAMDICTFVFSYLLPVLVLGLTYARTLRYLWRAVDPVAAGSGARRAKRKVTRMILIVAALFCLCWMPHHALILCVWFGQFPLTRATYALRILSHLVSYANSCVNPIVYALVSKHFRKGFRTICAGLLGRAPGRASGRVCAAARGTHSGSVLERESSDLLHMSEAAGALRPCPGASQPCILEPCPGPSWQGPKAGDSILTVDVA


What follows are molecules tested against T1, human GALR2 (assay: cell-based or functional assay).

Question: M35 (peptide) was tested. Which aequorin bioluminescence in 293-AEQ17 cells, EC50 did it give?
Answer: 44 nM

Question: M40 (peptide) was tested. Which aequorin bioluminescence in 293-AEQ17 cells, EC50 did it give?
Answer: 8.8 nM

Question: WTLNSAGYLLGPHAIDNHRSFSDKHGLT (peptide, UniProt P10683 34-61, looked up) [rat Gal(2-29)] was tested. Which “aequorin bioluminescence in 293-AEQ17 cells, EC50” value did it give?
Answer: 31 nM

Question: Which “aequorin bioluminescence in 293-AEQ17 cells, EC50” value does the source give for TLNSAGYLLGPHAIDNHRSFSDKHGLT (peptide, UniProt P10683 35-61, looked up) [rat Gal (3-29)] here?
Answer: > 10000 nM
